We go through 4 proteins from ChEMBL document CHEMBL1240325, “Non-heme dioxygenases: cellular sensors and regulators jelly rolled into one?” (Nat Chem Biol, 2007).

Substrate in data set [1]: O=C(O)CCC(=O)C(=O)O
The data set is described as follows: (§1) Activity of FIH-1.

Substrate in data set [2]: O=C1O[C@H]([C@@H](O)CO)C(O)=C1O
The description is as §1.

Substrate in data set [3]: O=O
The description is as §1.

Substrate in data set [4]: O=C(O)CCC(=O)C(=O)O
The data set is described as follows: (§2) Activity of HIF prolyl hydroxylase-2.

Substrate in data set [5]: O=C1O[C@H]([C@@H](O)CO)C(O)=C1O
Described as §2.

Substrate in data set [6]: O=O
The data set is described as §2.

Substrate in data set [7]: O=C(O)CCC(=O)C(=O)O
Nature of the data set: (§3) Activity of collagen prolyl 4 hydroxylase-1.

Substrate in data set [8]: O=C1O[C@H]([C@@H](O)CO)C(O)=C1O
The data set is described as §3.

Substrate in data set [9]: O=O
Described as §3.

Substrate in data set [10]: O=C(O)CCC(=O)C(=O)O
The data set is described as follows: (§4) Activity of HIF prolyl hydroxylase-3.

Substrate in data set [11]: O=C1O[C@H]([C@@H](O)CO)C(O)=C1O
The description is as §4.

Substrate in data set [12]: O=O
Described as §4.

A word on the Km: it is the substrate concentration at which the rate is half of its maximum.

B1: Hypoxia-inducible factor 1-alpha inhibitor (Homo sapiens), Q9NWT6 (protein)
chain: MAATAAEAVASGSGEPREEAGALGPAWDESQLRSYSFPTRPIPRLSQSDPRAEELIENEEPVVLTDTNLVYPALKWDLEYLQENIGNGDFSVYSASTHKFLYYDEKKMANFQNFKPRSNREEMKFHEFVEKLQDIQQRGGEERLYLQQTLNDTVGRKIVMDFLGFNWNWINKQQGKRGWGQLTSNLLLIGMEGNVTPAHYDEQQNFFAQIKGYKRCILFPPDQFECLYPYPVHHPCDRQSQVDFDNPDYERFPNFQNVVGYETVVGPGDVLYIPMYWWHHIESLLNGGITITVNFWYKGAPTPKRIEYPLKAHQKVAIMRNIEKMLGEALGNPQEVGPLLNTMIKGRYN
Regarding B1, the Km turned out to be 25 µM in data set [1], 260 µM in [2] and 90 µM in data set [3].

B2: Egl nine homolog 1 (Homo sapiens), Q9GZT9 (protein)
chain: MANDSGGPGGPSPSERDRQYCELCGKMENLLRCSRCRSSFYCCKEHQRQDWKKHKLVCQGSEGALGHGVGPHQHSGPAPPAAVPPPRAGAREPRKAAARRDNASGDAAKGKVKAKPPADPAAAASPCRAAAGGQGSAVAAEAEPGKEEPPARSSLFQEKANLYPPSNTPGDALSPGGGLRPNGQTKPLPALKLALEYIVPCMNKHGICVVDDFLGKETGQQIGDEVRALHDTGKFTDGQLVSQKSDSSKDIRGDKITWIEGKEPGCETIGLLMSSMDDLIRHCNGKLGSYKINGRTKAMVACYPGNGTGYVRHVDNPNGDGRCVTCIYYLNKDWDAKVSGGILRIFPEGKAQFADIEPKFDRLLFFWSDRRNPHEVQPAYATRYAITVWYFDADERARAKVKYLTGEKGVRVELNKPSDSVGKDVF
For B2, the values for the Km in data set [4], in [5] and in data set [6] were 2 µM, 180 µM and 100 µM, respectively.

B3: Prolyl 4-hydroxylase subunit alpha-1 (Homo sapiens), P13674 (protein)
chain: MIWYILIIGILLPQSLAHPGFFTSIGQMTDLIHTEKDLVTSLKDYIKAEEDKLEQIKKWAEKLDRLTSTATKDPEGFVGHPVNAFKLMKRLNTEWSELENLVLKDMSDGFISNLTIQRQYFPNDEDQVGAAKALLRLQDTYNLDTDTISKGNLPGVKHKSFLTAEDCFELGKVAYTEADYYHTELWMEQALRQLDEGEISTIDKVSVLDYLSYAVYQQGDLDKALLLTKKLLELDPEHQRANGNLKYFEYIMAKEKDVNKSASDDQSDQKTTPKKKGVAVDYLPERQKYEMLCRGEGIKMTPRRQKKLFCRYHDGNRNPKFILAPAKQEDEWDKPRIIRFHDIISDAEIEIVKDLAKPRLRRATISNPITGDLETVHYRISKSAWLSGYENPVVSRINMRIQDLTGLDVSTAEELQVANYGVGGQYEPHFDFARKDEPDAFKELGTGNRIATWLFYMSDVSAGGATVFPEVGASVWPKKGTAVFWYNLFASGEGDYSTRHAACPVLVGNKWVSNKWLHERGQEFRRPCTLSELE
Regarding B3, the figures for the Michaelis constant (Km) in [7], in data set [8] and in data set [9] were 20 µM, 300 µM and 40 µM, respectively.

B4: Prolyl hydroxylase EGLN3 (Homo sapiens), Q9H6Z9 (protein)
chain: MPLGHIMRLDLEKIALEYIVPCLHEVGFCYLDNFLGEVVGDCVLERVKQLHCTGALRDGQLAGPRAGVSKRHLRGDQITWIGGNEEGCEAISFLLSLIDRLVLYCGSRLGKYYVKERSKAMVACYPGNGTGYVRHVDNPNGDGRCITCIYYLNKNWDAKLHGGILRIFPEGKSFIADVEPIFDRLLFFWSDRRNPHEVQPSYATRYAMTVWYFDAEERAEAKKKFRNLTRKTESALTED
For the protein B4, the results for the Km in data set [10], in data set [11] and in data set [12] were 55 µM, 140 µM and 230 µM, respectively.
